Assay results published in patent US11739318B1, “Modified biosensors and biocatalysts and methods of use” (priority 2017, dated 2023).

Assays:
pNP sensor = assay: Raw whole cell fluorescence with pNP sensor and sfGFP-PON1 under positive feedback regulation, flow cytometer; type: cell-based, E. coli; settings: mean of duplicate cultures ± SD
Description: FIGS. 16A-16D show ‘Catalyze’ and ‘sense’ system for hydrolysis reactions. […] UI: background fluorescence from cells without any pNP source to induce the TF; […]; pNP: TF induced by exogenously supplied pNP as a control/reference. […] Relative activity levels are distinguishable by eye.
The technique described here (referred to in this example as “smart microbial cells” or SMC; e.g., FIGS. 1A and 1B) allows for catalysis and sensing in the same microbial cell. For a practical library application, we simplified and improved the signal to noise ratio of the biosensor. This was achieved by gene fusing the PON1 to the GFP so that the TF is also regulating the catalytic enzyme expression as well (scheme shown in FIG. 1B). This fusion is expected to have three distinct effects. First, it provides positive feedback, such that more the activity, the more PON1 is expressed, and in turn further ‘feeds’ the activity. […] Second, feedback will amplify the already present correlation between activity and GFP expression. Third, for suitably chosen GFP, the fluorescence signal conveniently reports the amount of fused PON1 present, allowing normalization for specific activity.
. Based on the catalytic efficiency and the cytoplasmic concentration of the hydrolase, PXN hydrolysis results in a correlated pNP production inside the microbial cell that ultimately determines activation of the pNP sensor and accumulation of sfGFP in the cells. […] When pNP was used as an inducer, such that the expression of sfGFP-PON1 expression is independent of the catalytic efficiency of PON1, modest differences in cell fluorescence were still captured across the PON1 variants indicating V346A mutation could be detrimental to PON1 expression and stability (FIG. 16C, Table 6).

BKA = BKA sensing with PcaR variants in high BKA producing strain NN7; type: cell-based, P. putida; settings: strain NN7, LB background BKA production
Description: Rosetta homology modeling, using a known structure of a transcription factor with a homologous sequence (PDB code 2G7U) was used to get a 3D estimate of the PcaR inducer binding domain. Based on the predicted structure, several amino acids in the pocket were identified to be suitable for mutagenesis. […] Positions N140, L161, L166, L172, M179, L234, L238, S240, N257 and S259 were mutated for diversification to achieve N/S/T/I at positions 140 and 257, L/M/V at positions 161, 166, 172, 179, 234 and 238, S/T/A at position 240 and 259. This produced a library of diversity>100,000. The library was transformed in high BKA producing strain where native pcaR gene was deleted (strain NN7) and screened for increase fluorescence response with increasing dose of precursors while in the LB mediated BKA production background.

[1] = UbiC enzyme kinetic parameters (pyruvate release coupled to lactate dehydrogenase, NADH oxidation at 340 nm); type: biochemical; settings: sfGFP fused UbiC variants with C-terminal 6xHis tag, 30° C., pH 7.5; for Km: chorismate
Description: Enzyme expression and purification: 5 mL cultures were grown from the glycerol stocks of P. putida CJ182 containing plasmids encoding 6×His-tag UbiC variants. At an OD600 of ˜0.6, the cultures were induced with 1 mM 4HB and further grown for 16 h at 30° C. and 225 rpm shaking. The cultures were centrifuged at 3500×g for 10 min and the cell pellets were lysed with 500 μL BugBuster (Novagen) under slow shaking for 30 min. The cell lysates were centrifuged at 15,000×g for 15 min at 4° C. and the sfGFP-UbiC fusion proteins were purified by Affinity Chromatography using Talon beads (Clontech). For purification, the clarified supernatant for each UbiC variant was mixed with 200 μL Talon beads in an equilibration buffer (50 mM Tris-HCl, 300 mM NaCl, pH 7.5) for 30 min. The mixture was centrifuged at 2000×g, the supernatant was discarded and the pellet consisting of Talon beads with bound protein was washed two times with equilibration buffer containing 50 mM imidazole. Finally, the beads were mixed with elution buffer (50 mM Tris-HCl, 300 mM NaCl, 300 mM Imidazole, pH 7.5) and filtered through a spin column with 0.2 µm filter. The enzyme concentration and purity of the protein in the eluate were determined by absorbance at 280 nm using a Nanodrop (Thermo Scientific) and SDS polyacrylamide gel electrophoresis, respectively.
Determining enzyme kinetic parameters: The production of 4HB from chorismate catalyzed by UbiC is accompanied with release of a pyruvate molecule. […] The reactions were conducted in 96-well plate at 30° C. in the Synergy H4 Hybrid Microplate Reader (Biotek). The kinetic parameters and product inhibition constants were determined by measuring the initial reaction rates with respect to varying substrate and product concentrations and calculated using GraphPad Prism software.

P. putida CJ200 = assay: Shake flask muconate production; type: cell-based; settings: plasmid expressed, over CJ200 with no heterologous UbiC expression
Description: Shake flask experiments for muconate production: P. putida CJ200 transformed with pPobR_ubiC plasmids or with genomically integrated ubiC-C22 under PobR regulation (NP015) were grown in 125 mL baffled shake flasks containing 25 mL of 1×M9 salts (6.78 g/L Na2HPO4, 3 g/L KH2PO4, 0.5 g/L NaCl, 1 g/L NH4Cl), 30-50 mM glucose, 2 mM MgSO4, 100 μM CaCl2), 18 μM FeSO4, and 50 μg/mL kanamycin. Seed cultures were grown from glycerol stocks in LB media supplemented with 50 μg/mL kanamycin, for 16 hours, pelleted and washed with M9 growth medium and subcultured into flasks to a final OD600 of 0.05. Cultures were incubated at 30° C. and 225 rpm for up to 2 days. Samples were taken at regular intervals to quantify cell density, glucose consumption, and muconate concentration.
Quantification of glucose and muconate concentrations using High Performance Liquid Chromatography (HPLC): To measure muconate concentration, culture samples collected at various time points were centrifuged either at 3,500 rpm for 10 min or 16,000 rpm for 1 min. […] The samples were analyzed for 10 min on a Fast Acid column (Phenomenex Rezex RFQ-Fast Acid H+(8%)) using 0.01 N H2SO4 at a flow rate of 0.8 mL/min as a mobile phase. […] Alternatively, the samples were analyzed for 40 min on a SUPELCOGEL H Column (SUPELCO) with 0.1% H2SO4 at 0.5 mL/min. […]

B1: H115W/V346A: PON1 version that combines the two mutations H115W/V346A (protein, UniProt P27169 2-355, looked up, variant H115W V346A)
Serum …: AKLIALTLLGMGLALFRNHQSSYQTRLNALREVQPVELPNCNLVKGIETGSEDLEILPNGLAFISSGLKYPGIKSFNPNSPGKILLMDLNEEDPTVLELGITGSKFDVSSFNPWGISTFTDEDNAMYLLVVNHPDAKSTVELFKFQEEEKSLLHLKTIRHKLLPNLNDIVAVGPEHFYGTNDHYFLDPYLQSWEMYLGLAWSYVVYYSPSEVRVVAEGFDFANGINISPDGKYVYIAELLAHKIHVYEKHANWTLTPLKSLDFNTLVDNISVDPETGDLWVGCHPNGMKIFFYDSENPPASEVLRIQNILTEEPKVTQVYAENGTVLQGSTVASVYKGKLLIGTAFHKALYCEL
- Raw whole cell fluorescence intensity, PXN (1.6 mM) (pNP sensor; exogenous paraoxon 1.6 mM): 2410 ± 669
- Raw whole cell fluorescence intensity, pNP (200 μM) (pNP sensor; induced with exogenous pNP 200 μM): 11484 ± 2032
- Raw whole cell fluorescence intensity, UI (pNP sensor; uninduced, no pNP source): 248 ± 36

B2: PcaR-G5: PcaR variant for a low sensitivity BKA sensor, SEQ ID NO: 26 (protein)
chain: MSDETLGNDSGNAEVARPASAAMAPPIVASPAKRIQAFTGDPDFMTSLARGLAVIQAFQERKRHLTIAQISHRTEIPRAAVRRCLHTLIKLGYATTDGRTYSLLPKVLTLGHAYLSSTPLAISAQPYLDRISDQLHEAANMATLEGDDILYIARSATVERLISVDLSVGGRMPAYCTSMGRILLAAMDDTSLREYLERADLKARTSRTLNDPESLFACIQQVRAQGWCVVDQELEQGVRAIAVPVYDASGQVLAALSVSTHVGRVTRSELEQRFLPILLAASRDLCHQLFG
modifications: PcaR-G5
- fluorescence response with BKA precursors, catechol and PCA (BKA): showed dose dependent response

B3: PcaR-F6: PcaR variant for a low sensitivity BKA sensor, SEQ ID NO: 27 (protein)
chain: MSDETLGNDSGNAEVARPASAAMAPPIVASPAKRIQAFTGDPDFMTSLARGLAVIQAFQERKRHLTIAQISHRTEIPRAAVRRCLHTLIKLGYATTDGRTYSLLPKVLTLGHAYLSSTPLAISAQPYLDRISDQLHEAANMATLEGDDILYIARSATVERLISVDLSVGGRLPAYCTSMGRILLAAMDDTSLREYLERADLKARTSRTLNDPESLFACIQQVRAQGWCVVDQELEQGMRTIAVPVYDASGQVLAALSVSTHVGRVTRSELEQRFLPILLAASRDLCHQLFG
modifications: PcaR-F6
- fluorescence response with BKA precursors, catechol and PCA (BKA): showed dose dependent response

B4: PcaR-H6: PcaR variant for a low sensitivity BKA sensor, SEQ ID NO: 28 (protein)
chain: MSDETLGNDSGNAEVARPASAAMAPPIVASPAKRIQAFTGDPDFMTSLARGLAVIQAFQERKRHLTIAQISHRTEIPRAAVRRCLHTLIKLGYATTDGRTYSLLPKVLTLGHAYLSSTPLAISAQPYLDRISDQLHEAANMATLEGDDILYIARSATVERLISVDLSVGGRMPAYCTSMGRILLAAMDDTSLREYLERADLKARTSRTLNDPESLFACIQQVRAQGWCVVDQELEQGVRSIAVPVYDASGQVLAALSVSTHVGRVTRSELEQRFLPILLAASRDLCHQLFG
modifications: PcaR-H6
- fluorescence response with BKA precursors, catechol and PCA (BKA): showed dose dependent response

B5: UbiC_C21: E. coli UbiC variant with mutations M34V/I78V (protein, UniProt P26602 2-165, looked up, variant M34V I78V)
Chorismate pyruvate-lyase: SHPALTQLRALRYCKEIPALDPQLLDWLLLEDSVTKRFEQQGKTVSVTMIREGFVEQNEIPEELPLLPKESRYWLREVLLCADGEPWLAGRTVVPVSTLSGPELALQKLGKTPLGRYLFTSSTLTRDFIEIGRDAGLWGRRSRLRLSGKPLLLTELFLPASPLY
- kcat [1]: 0.67 ± 0.06 s⁻¹
- Km [1]: 90.2 ± 7.8 µM
- muconate yield increase (P. putida CJ200): ~130%

B6: UbiC_C11: E. coli UbiC variant with mutations E31Q/I78V/L80V (protein, UniProt P26602 2-165, looked up, variant E31Q I78V L80V)
Chorismate pyruvate-lyase: SHPALTQLRALRYCKEIPALDPQLLDWLLLQDSMTKRFEQQGKTVSVTMIREGFVEQNEIPEELPLLPKESRYWLREVLVCADGEPWLAGRTVVPVSTLSGPELALQKLGKTPLGRYLFTSSTLTRDFIEIGRDAGLWGRRSRLRLSGKPLLLTELFLPASPLY
- kcat [1]: 0.51 ± 0.04 s⁻¹
- Km [1]: 54.7 ± 3.4 µM

B7: UbiC_C22: E. coli UbiC variant with mutations E31Q/M34V (protein, UniProt P26602 2-165, looked up, variant E31Q M34V)
Chorismate pyruvate-lyase: SHPALTQLRALRYCKEIPALDPQLLDWLLLQDSVTKRFEQQGKTVSVTMIREGFVEQNEIPEELPLLPKESRYWLREILLCADGEPWLAGRTVVPVSTLSGPELALQKLGKTPLGRYLFTSSTLTRDFIEIGRDAGLWGRRSRLRLSGKPLLLTELFLPASPLY
- kcat [1]: 1.04 ± 0.09 s⁻¹
- Km [1]: 148 ± 9.4 µM
- muconate yield increase (P. putida CJ200): ~130%
